Assay results: patent US8318640B2, “Methods for selective targeting” (Danisco US Inc., priority 2000, dated 2012)
Square brackets hold non-standard residues; d marks the D form. Ends that are not written are not given here. 14C‑Gly = 14C-labelled glycine

Columns and labels:
(h) TNF-α [1] = molecular target: T1, (h) TNF-α (Homo sapiens, UniProt P01375); test: Selective targeting of a phage-displayed 7-mer library on TNF-α, PCR identification of bound clones; assay type: binding; set-up: purchased BioSource International; Camarillo, Calif; details: number of multiple times this amino acid sequence occurred out of 24 clones sequenced; binds TNF-alpha and not SuperBlock
T1 sequence (P01375 77-233 limits assumed): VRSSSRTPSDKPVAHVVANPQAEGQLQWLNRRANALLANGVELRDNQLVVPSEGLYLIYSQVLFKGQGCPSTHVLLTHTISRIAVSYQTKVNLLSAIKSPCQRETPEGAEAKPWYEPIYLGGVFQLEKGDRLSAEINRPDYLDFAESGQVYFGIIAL
Protocol: A thin-walled PCR tube was coated with the target human (h) TNF-α (BioSource International; Camarillo, Calif.) by incubating 100 μl of 0.5 mg/ml purified TNF-α in PBS overnight at 4° C. in the PCR tube. Excess unbound TNF-α was removed, and the tube was coated overnight at 4° C. with 100 μl of SuperBlock™ blocking buffer (Pierce: Rockford, Ill.) in Tris buffered saline (TBS). The anti-target (SuperBlock™ blocking buffer) was prepared in separate PCR tubes coated overnight at 4° C. with 100 μl of SuperBlock™.
Unbound phage were removed by washing the tube 5 times with 150 μl PBS containing 0.1% Tween-20 at room temperature. Low affinity binders were washed away by incubating with 60 μl of 0.2 M Glycine (pH 2.2) for 6 minutes followed by neutralization with 9 μl 1 M Tris-Cl (pH 9.1). The acid washed population was retained for further analysis. The tube was then washed again 3 times with 150 μl of PBS.
To the remaining phage-peptides bound to the TNF-α, 54 μl of Lysis Buffer A (10 mM Tris-Cl, pH 8.4, 0.1% Triton-X100) and an AmpliWax™ PCR gem (Perkin Elmer, Norwalk, USA.) was added. The tube was heated at 95° C. for 15 min and then allowed to cool. The following PCR reagents were then added:
PCR amplification was performed using 20 cycles of denaturation at 94° C. for 15 sec, annealing at 55° C. for 20 sec, and extension at 72° C. for 30 sec. The sequences of the primers (synthesized by GIBCO BRL) were: […]
The PCR product (267 base pairs (bp)) was analyzed on an 8% polyacrylamide gel along with the PCR product from a single phage peptide clone (positive control) and molecular weight markers (FIG. 2). […] This was due to too much template (i.e. phage) in the PCR reaction, and can be alleviated by decreasing the phage concentration or by decreasing the number of PCR cycles (FIG. 3). To decrease the amount of the 500-700 bp diffuse band, the PCR product was diluted appropriately for subsequent PCR reactions from this starting material to generate more products for sub-cloning purposes. Once the desired product (267 bp) was amplified, it was digested with Eagl and Acc651 restriction endonucleases to produce a 45 bp fragment containing the DNA coding for the random peptide. The 45 bp fragment was then sub-cloned into the M13KE vector (New England Biolabs; Beverly, Mass.) at the EagI and Acc65I restriction sites using standard techniques (Sambrook, et al., (1989) supra). After ligating the 45 bp fragment into the M13KE vector, the ligation reaction was transformed into chemically competent ER2537 E. coli cells. The cells were made competent with calcium chloride using a standard protocol (Sambrook, et al., (1989) supra). The M13 DNA was isolated from various transformants using a modified protocol from New England Biolab's protocol for M13 DNA preparation and then sequenced. The modification includes the use of 96-well plates as opposed to tubes.

(h) TNF-α [2] = molecular target: T1, (h) TNF-α; test: IAsys biosensor binding and dissociation of phage clone on immobilized TNF-α
Protocol: The binding and dissociation of phage clone A1, amino acid sequence: RYWQDIP; Table 1, (SEQ ID NO: 3) to TNF-α was monitored using an IAsys AutoPlus Biosensor following the Labsystems Affinity Sensors IAsys Protocol 2.4 ‘Immobilization to Protein Layer: Thiol coupling to avidin’ (Thermo BioAnalysis Corp. Franklin, Mass.). Two cuvettes were first coated with avidin and one (the control) was then blocked with biotin. This was followed by activation of the lysine groups. A 15 μl aliquot of a 1 mg/ml (h) TNF-α solution was added to each cuvette. […] After blocking and washing, phage clone A1, RYWQDIP (SEQ ID NO: 3) was added to give a final titer of 5×10^11 pfu/ml.
The dissociation of the phage from the TNF-α is very slow with the dissociation constant estimated as koff<10^−4 sec^−1 (10 mM HEPES/0.05% Tween). Washing with a 10× buffer concentrate (at the 70 min time point) only removed a small portion of the phage.

[3] = ELISA of biotinylated peptide binding to skin; set-up: species or system human; details: 200 μM biotinylated peptide in 2% body wash; FIG. 9
Source text: (§1) Peptide sequences identified in Examples 13 and 14 along with a random control peptide were C-terminally labeled with the sequence GGGK (biotin). The sequence LESTPKMK (SEQ ID NO: 115) contains the consensus sequence LEST and was isolated on hair. FTQSLPR (SEQ ID NO: 116) contains the consensus sequence TQSL and was isolated on skin. YGGFMTSE (SEQ ID NO: 117) is a control peptide.
(§2) Dark brown hair (3″ long, 4 each), moistened with 2% body wash and pre-equilibrated human skin tissues, were placed in the wells of a 24 well plate. 1 ml of a 200 μM solution of the biotinylated peptide in 2% Neutrogena body wash was added to the hair and skin samples and incubated 30 min at room temperature with gentle agitation. The solution was then pipetted off and the hair and skin samples transferred with clean tweezers to a 50 ml conical tube, washed once with 50 ml of 2% body wash, twice with 50 ml of water, and once with 50 ml of PBS; each wash step took 5 min and was performed on a rotary shaker at 20 rpm. The hair and skin samples were then transferred with clean tweezers to a fresh 24 well plate where 1 ml of streptavidin conjugated horseradish peroxidase (diluted 1/1000 in PBS) was added for 1 hr at room temperature under gentle rocking. Excess streptavidin HRP was removed by washing twice with 50 ml of PBS (5 min, 20 rpm each) in a 50 mL conical tube. […]

[4] = Release of 14C-labeled peptide from collar soil on polyester cotton in Tide detergent, scintillation counting; assay type: binding
Protocol: Soiled shirt collars (65% polyester: 35% cotton) containing the target (collar soil) and anti-target along with the control anti-target (unstained polyester:cotton from the same shirt) were cut to a diameter of 7/32″ and placed into a 96-well microtiter plate (Millipore Corp., […] Durapore membrane; Cat. No. MAGV N22 50). Serial dilutions of a 400 μM stock solution of a soil targeting peptide SISSTPRSYHWT (SEQ ID NO: 20) and a peptide control NFFPTWILPEHT (SEQ ID NO: 78) both terminally labelled with ^14C-glycine were added to 1 g/L Tide detergent solutions (Procter and Gamble, Cincinnati, Ohio) and 60 μL aliquots were placed into the wells of the microtiter plate. The plate was incubated with shaking for 30 minutes at 32° C. followed by suction filtering of excess unbound radiolabeled peptide (Vacuum manifold; Millipore Corp. Cat. No. MAVM 096 OR). The samples were rinsed three times with 200 μL of distilled water, with shaking in between rinses, over a period of about 40 minutes. The remaining radioactivity bound to the samples was quantitated by liquid scintillation counting in a Wallac microbeta counter. […] This corresponds to a rate constant for release of the soil targeting peptide koff≦2×10^−4 sec^−1.

[5] = ELISA of biotinylated peptide binding to hair; set-up: species or system human; details: 200 μM biotinylated peptide in 2% body wash; FIG. 9
Source text: as §1, §2

[6] = Ni-chelated peptide binding to collar soil on cotton or cotton alone, OPD/H2O2 absorbance assay
Protocol: A phage peptide sequence HTFQHQWTHQTR, (SEQ ID NO: 27) that binds to collar soil on cotton was identified after five rounds of biopanning as described in example 5 except that phage peptides were eluted by acid after each round using the methods described in Scott and Smith (1990) Science 249:386. The selectivity (stain vs. cotton binding) and affinity (koff) were measured for the corresponding peptide binding to collar soil as follows: A 1 mM solution of Ni chelated GGHTFQHQWTHQTR (SEQ ID NO: 28) was incubated with collar soil on cotton or cotton alone for 90 minutes at room temperature with shaking in a microtiter plate. A control peptide chelate Ni GGH was also tested under the same conditions. After pipeting off the incubation solution from the well, fabric swatches were rinsed in 200 μL water with shaking for 3 minutes. The residual bound peptide was assayed by adding 200 μL o-phenylenediamine (OPD) and 50 μL of 100 mM H2O2 and measuring the absorbance of the oxidized OPD at 420 nm. As summarized in Table 5 and FIG. 7, the selectivity ratio of stain binding to fabric is less than or equal to ≦3:1 and the affinity as measured by koff=1×10^−3 sec^−1.

RYWQDIP (peptides screened from a phage display random peptide library) [Clone T1]
Frequency ((h) TNF-α [1]): 8 | koff (dissociation of the phage from the TNF-α) ((h) TNF-α [2]; 10 mM HEPES/0.05% Tween): < 10^−4 sec^−1 | binding of phage to immobilized TNF-α ((h) TNF-α [2]; IAsys cuvette, final titer 5×10^11 pfu/ml): significant binding

WTPKPTQ (peptides screened from a phage display random peptide library) [Clone T4]
Frequency ((h) TNF-α [1]): 2

DMIMVSI (peptides screened from a phage display random peptide library) [Clone T3]
Frequency ((h) TNF-α [1]): 3

FTQSLPR (peptides screened from a phage display random peptide library)
ELISA binding to skin versus hair [3]: selectively targets skin and not hair

TMLPYRP (peptides screened from a phage display random peptide library) [Clone T7]
Frequency ((h) TNF-α [1]): 2

ATFPNQS (peptides screened from a phage display random peptide library) [Clone T5]
Frequency ((h) TNF-α [1]): 2

SISSTPRSYHWT (peptides screened from a phage display random peptide library) [Clone C4]
total radiolabel remaining bound to the stained fabric ([4]; 1 g/L Tide, after rinsing for 40 minutes): greater than 50% | koff, rate constant for release of the soil targeting peptide ([4]; 1 g/L Tide, collar soil on polyester cotton): ≤ 0.0002 s⁻¹

GSISSTPRSYHWT ([14C‑Gly]SISSTPRSYHWT)
Affinity 10^−4 koff (sec^−1) ([4]; Table 5, Selective Targeting (PCR), 1 round of selection): ≦ 2 10^−4 sec^−1

APEPILA (peptides screened from a phage display random peptide library) [Clone T2]
Frequency ((h) TNF-α [1]): 7

LESTPKMK (peptides screened from a phage display random peptide library)
ELISA binding to hair [5]: binds to hair

ASTVGGL (peptides screened from a phage display random peptide library) [Clone T6]
Frequency ((h) TNF-α [1]): 2

NFFPTWILPEHT (peptides screened from a phage display random peptide library) [random peptide control, reference compound]
affinity or selectivity for stained fabric ([4]; 1 g/L Tide, same assay, FIG. 6B): no affinity or selectivity

GGHTFQHQWTHQTR (peptides screened from a phage display random peptide library)
koff ([6]; Ni-chelated peptide, dissociation from collar soil and the corresponding cotton fabric): 0.001 s⁻¹ | Affinity 10^−4 koff (sec^−1) ([6]; Table 5, Biopanning, 5 rounds of selection): 10 10^−4 sec^−1
